Experimental data taken from US20030219436A1.

B1: human CD83 murine Ig fusion protein (human CD83 extracellular domain upstream of the murine IgG2a Fc domain) (Fc fusion)
chain: MSRGLQLLLLSCAYSLAPATPEVKVACSEDVDLPCTAPWDPQVPYTVSWVKLLEGGEERMETPQEDHLRGQHYHQKGQNGSFDAPNERPYSLKIRNTTSCNSGTYRCTLQDPDGQRNLSGKVILRVTGCPAQRKEETFKKYRAERSEPRGPTIKPCPPCKCPAPNSAGTSSVFIFPPKIKDVLMISLSPIVTCVVVDVSEDDPDVQISWFVNNVEVHTAQTQTHREDYNSTLRVVSALPIQHQDWMSGKEFKCKVNNKDLPAPIERTISKPKGSVRAPQVYVLPPPEEEMTKKQVTLTCMVTDFMPEDIYVEWTNNGKTELNYKNTEPVLDSDGSYFMYSKLRVEKKNWVERNSYSCSVVHEGLHNHHTTKSFSRTPGK

Legend:
[1] = molecular target: ligand(s) that bind to CD83, on mouse cells (PBMC monocytes, lymph node lymphocytes, splenocytes); assay: flow cytometry on mouse PBMC
[2] = molecular target: ligand(s) that bind to CD83, on mouse cells (PBMC monocytes, lymph node lymphocytes, splenocytes); assay: flow cytometry on mouse splenocytes
[3] = molecular target: ligand(s) that bind to CD83, on mouse cells (PBMC monocytes, lymph node lymphocytes, splenocytes); assay: flow cytometry on mouse lymph node lymphocytes
[4] = molecular target: ligand(s) that bind to CD83, on human peripheral blood cells (monocytes, some lymphocytes); assay: flow cytometry on fresh human PBMC, biotinylated CD83Ig + PE streptavidin

Row | Molecule | percent of cells bound (monocytes in peripheral blood) [1] [%] | percent of cells bound (non-T cell population of splenocytes) [2] [%] | percent of cells bound (lymphocytes from lymph nodes) [3] [%] | percent of cells bound (CD3+ cells, lymphocyte gate) [4] [%] | percent of cells bound (CD3- cells, lymphocyte gate) [4] [%] | percent of cells bound (larger cell scatter gate, monocytes) [4] [%]
1 | human CD83-hIgG1 fusion protein (extracytoplasmic domain of human CD83 with a human IgG1 tail) (Fc fusion) | 90 | 15 | < 5 | < 1 | 4 | > 75
2 | B1 | 90 | 15 | < 5 |  |  | 
